Consider 2 molecules from publication PMC8471065.

In series [1] the target is T1, thrombin (alpha-thrombin not specified) (Homo sapiens (human plasma), UniProt P00734;P00734 328-363;364-622). Description: EMSA; K+; band at start of lane (multi-species complex), no clotting inhibition; 1 uM Cy5-aptamer (10 uL) annealed in 10 mM sodium cacodylate pH 7.2, 100 mM KCl in D2O; 24 pmol thrombin (2.4 eq), 30 min at 25 C; 12% native PAGE, 1x TBE + 10.
Series [2] concerns the target T1, thrombin (alpha-thrombin not specified). Description: EMSA; K+; only the lower (folded) band bound; 1 uM Cy5-aptamer (10 uL) annealed in 10 mM sodium cacodylate pH 7.2, 100 mM KCl in D2O; 24 pmol thrombin (2.4 eq), 30 min at 25 C; 12% native PAGE, 1x TBE + 10.

Regarding GGGTTGGGTGTGGGTTGGG (structured_DNA, 3'-propargyl linker) [3Q-ppg-Cy5 (Cy5-3Q)], in series [1], the binding result is given as “binds”.
In the case of GGTTGGTGTGGTTGG (structured_DNA, 3'-propargyl linker) [TBA-ppg-Cy5], in series [2], the binding result was “binds”.
